Laboratory results as given in patent US20190202883A1 (Takeda / Millennium, published 2019).
Square brackets hold non-standard residues; d marks the D form. Side chains are listed from the residue outwards. Ends that are not written are not given here. Phe(2-F) = N[C@@H](Cc1ccccc1F)C(=O)O; NMeY = CN[C@@H](Cc1ccc(O)cc1)C(=O)O; αMeF = C[C@](N)(Cc1ccccc1)C(=O)O; Iva = CC[C@](C)(N)C(=O)O; Oda = not defined here; Aib = CC(C)(N)C(=O)O

T1: human GIPR (human, UniProt P48546 22-466)
T1 sequence (looked up): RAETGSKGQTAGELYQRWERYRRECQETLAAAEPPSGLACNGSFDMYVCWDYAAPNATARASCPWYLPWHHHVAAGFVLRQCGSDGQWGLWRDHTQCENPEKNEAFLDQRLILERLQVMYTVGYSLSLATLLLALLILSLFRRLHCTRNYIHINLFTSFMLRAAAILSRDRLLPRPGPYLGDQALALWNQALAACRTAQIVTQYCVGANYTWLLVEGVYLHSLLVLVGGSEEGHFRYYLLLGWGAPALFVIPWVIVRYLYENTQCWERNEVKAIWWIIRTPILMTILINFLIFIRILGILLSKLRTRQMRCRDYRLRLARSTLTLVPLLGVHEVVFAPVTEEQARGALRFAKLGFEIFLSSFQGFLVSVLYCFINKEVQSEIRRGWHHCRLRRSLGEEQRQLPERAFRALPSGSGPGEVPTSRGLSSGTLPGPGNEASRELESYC

T2: human NPY2R (human, UniProt P49146 1-381)
T2 sequence (looked up): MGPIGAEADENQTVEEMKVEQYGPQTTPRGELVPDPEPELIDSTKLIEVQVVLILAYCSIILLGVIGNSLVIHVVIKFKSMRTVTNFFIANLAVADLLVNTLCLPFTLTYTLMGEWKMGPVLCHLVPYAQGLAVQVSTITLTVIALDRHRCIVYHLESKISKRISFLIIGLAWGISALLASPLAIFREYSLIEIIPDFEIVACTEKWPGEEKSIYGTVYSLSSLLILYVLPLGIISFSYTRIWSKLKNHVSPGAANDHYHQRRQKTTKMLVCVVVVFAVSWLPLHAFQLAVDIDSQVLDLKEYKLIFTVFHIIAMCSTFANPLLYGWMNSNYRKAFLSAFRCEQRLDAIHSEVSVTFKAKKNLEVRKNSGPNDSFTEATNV


Columns and labels:
Experiment in all cases: cell-based or functional assay
human GIPR = target: T1, human GIPR
human NPY2R = target: T2, human NPY2R
human GLP-1R = human GLP-1R (human, UniProt P43220 24-463)

Binder | Agonist activity (EC50), Cre-luc reporter assay (human GIPR) | Agonist activity (EC50), Cre-luc reporter assay (human NPY2R) | Agonist activity (EC50), Cre-luc reporter assay (human GLP-1R)
H-Y[Aib]EGT[αMeF]TSDK([Gly-Gly-Gly-Gly-Pal])[Aib]I[Aib]LDKQAQ[Iva]EFVRHLLNK[Aib]TRQR[Phe(2-F)]-NH2 | 35 pM | 0.031 nM | 14 pM
H-Y[Aib]EGT[αMeF]TSDK([Gly-Gly-Gly-Gly-Oda])[Aib]I[Aib]LDKQRQ[Iva]EFVRHLLNK[Aib]TRQR[Phe(2-F)]-NH2 (reading uncertain; also: printed as H-Tyr-Aib-Glu-Gly-Thr-αMePhe-Thr-Ser-Asp-Lys(-Gly-Gly-Gly-Gly-Oda)-Aib-Ile-Aib-Leu-Asp-Lys-Gln-Arg-Gln-Iva-Glu-Phe-Val-Arg-His-Leu-Leu-Asn-Lys-Aib-Thr-Arg-Gln-Arg-Phe(2-F)-NH2) | 410 pM | 1.3 nM | 610 pM
Me-Y[Aib]EGT[αMeF]TSDK([Gly-Gly-Gly-Gly-Oda])[Aib]I[Aib]LEKQRQ[Iva]EFVRHLLNK[Aib]TRQRY-NH2 (reading uncertain; also: printed as Me-Tyr-Aib-Glu-Gly-Thr-αMePhe-Thr-Ser-Asp-Lys(-Gly-Gly-Gly-Gly-Oda)-Aib-Ile-Aib-Leu-Glu-Lys-Gln-Arg-Gln-Iva-Glu-Phe-Val-Arg-His-Leu-Leu-Asn-Lys-Aib-Thr-Arg-Gln-Arg-Tyr-NH2) | 530 pM | 1.5 nM | 1100 pM
H-Y[Aib]EGT[αMeF]TSDK([Gly-Gly-Gly-Gly-Pal])AI[Aib]LEKQRQ[Iva]EFVRHLLNK[Aib]TRQRY-NH2 | 42 pM | 0.023 nM | 45 pM
H-Y[Aib]EGT[αMeF]TSDK([Gly-Gly-Gly-Gly-Oda])AI[Aib]LEKQRQ[Iva]EFVRHLLNK[Aib]TRQRY-NH2 (reading uncertain; also: printed as H-Tyr-Aib-Glu-Gly-Thr-αMePhe-Thr-Ser-Asp-Lys(-Gly-Gly-Gly-Gly-Oda)-Ala-Ile-Aib-Leu-Glu-Lys-Gln-Arg-Gln-Iva-Glu-Phe-Val-Arg-His-Leu-Leu-Asn-Lys-Aib-Thr-Arg-Gln-Arg-Tyr-NH2) | 360 pM | 1.1 nM | 530 pM
Me-Y[Aib]EGT[αMeF]TSDK([Gly-Gly-Gly-Gly-Pal])AI[Aib]LEKQRQ[Iva]EFVRHLLNK[Aib]TRQRY-NH2 | 40 pM | 0.026 nM | 36 pM
[NMeY][Aib]EGT[αMeF]TSDK([Gly-Gly-Gly-Gly-Oda])AI[Aib]LEKQRQ[Iva]EFVRHLLNK[Aib]TRQRY-NH2 (reading uncertain; also: printed as Me-Tyr-Aib-Glu-Gly-Thr-αMePhe-Thr-Ser-Asp-Lys(-Gly-Gly-Gly-Gly-Oda)-Ala-Ile-Aib-Leu-Glu-Lys-Gln-Arg-Gln-Iva-Glu-Phe-Val-Arg-His-Leu-Leu-Asn-Lys-Aib-Thr-Arg-Gln-Arg-Tyr-NH2) | 400 pM | 1.7 nM | 2300 pM
H-Y[Aib]EGT[αMeF]TSDK([Gly-Gly-Gly-Gly-Pal])SI[Aib]LEKQRQ[Iva]EFVRHLLNK[Aib]TRQRY-NH2 | 41 pM | 0.041 nM | 53 pM
H-Y[Aib]EGT[αMeF]TSDK([Gly-Gly-Gly-Gly-Oda])SI[Aib]LEKQRQ[Iva]EFVRHLLNK[Aib]TRQRY-NH2 (reading uncertain; also: printed as H-Tyr-Aib-Glu-Gly-Thr-αMePhe-Thr-Ser-Asp-Lys(-Gly-Gly-Gly-Gly-Oda)-Ser-Ile-Aib-Leu-Glu-Lys-Gln-Arg-Gln-Iva-Glu-Phe-Val-Arg-His-Leu-Leu-Asn-Lys-Aib-Thr-Arg-Gln-Arg-Tyr-NH2) | 170 pM | 1.6 nM | 240 pM
Me-Y[Aib]EGT[αMeF]TSDK([Gly-Gly-Gly-Gly-Pal])SI[Aib]LEKQRQ[Iva]EFVRHLLNK[Aib]TRQRY-NH2 | 52 pM | 0.049 nM | 48 pM
Me-Y[Aib]EGT[αMeF]TSDK([Gly-Gly-Gly-Gly-Oda])SI[Aib]LEKQRQ[Iva]EFVRHLLNK[Aib]TRQRY-NH2 (reading uncertain; also: printed as Me-Tyr-Aib-Glu-Gly-Thr-αMePhe-Thr-Ser-Asp-Lys(-Gly-Gly-Gly-Gly-Oda)-Ser-Ile-Aib-Leu-Glu-Lys-Gln-Arg-Gln-Iva-Glu-Phe-Val-Arg-His-Leu-Leu-Asn-Lys-Aib-Thr-Arg-Gln-Arg-Tyr-NH2) | 250 pM | 2.6 nM | 1300 pM
Me-Y[Aib]EGT[αMeF]TSDK([Gly-Gly-Gly-Gly-Pal])[Aib]I[Aib]LDKQRQ[Iva]EFVRHLLNK[Aib]TRQR[Phe(2-F)]-NH2 | 93 pM | 0.12 nM | 130 pM
Me-Y[Aib]EGT[αMeF]TSDK([Gly-Gly-Gly-Gly-Oda])[Aib]I[Aib]LDKQRQ[Iva]EFVRHLLNK[Aib]TRQR[Phe(2-F)]-NH2 (reading uncertain; also: printed as Me-Tyr-Aib-Glu-Gly-Thr-αMePhe-Thr-Ser-Asp-Lys(-Gly-Gly-Gly-Gly-Oda)-Aib-Ile-Aib-Leu-Asp-Lys-Gln-Arg-Gln-Iva-Glu-Phe-Val-Arg-His-Leu-Leu-Asn-Lys-Aib-Thr-Arg-Gln-Arg-Phe(2-F)-NH2) | 290 pM | 1 nM | 1500 pM
H-Y[Aib]EGT[αMeF]TSDK([Gly-Gly-Gly-Gly-Pal])[Aib]I[Aib]LDKQRQ[Iva]EFVRHLLNK[Aib]TRQRY-NH2 | 68 pM | 0.1 nM | 82 pM
H-Y[Aib]EGT[αMeF]TSDK([Gly-Gly-Gly-Gly-Oda])[Aib]I[Aib]LDKQRQ[Iva]EFVRHLLNK[Aib]TRQRY-NH2 (reading uncertain; also: printed as H-Tyr-Aib-Glu-Gly-Thr-αMePhe-Thr-Ser-Asp-Lys(-Gly-Gly-Gly-Gly-Oda)-Aib-Ile-Aib-Leu-Asp-Lys-Gln-Arg-Gln-Iva-Glu-Phe-Val-Arg-His-Leu-Leu-Asn-Lys-Aib-Thr-Arg-Gln-Arg-Tyr-NH2) | 220 pM | 2.1 nM | 320 pM
Me-Y[Aib]EGT[αMeF]TSDK([Gly-Gly-Gly-Gly-Pal])[Aib]I[Aib]LDKQRQ[Iva]EFVRHLLNK[Aib]TRQRY-NH2 | 68 pM | 0.1 nM | 83 pM
Me-Y[Aib]EGT[αMeF]TSDK([Gly-Gly-Gly-Gly-Oda])[Aib]I[Aib]LDKQRQ[Iva]EFVRHLLNK[Aib]TRQRY-NH2 (reading uncertain; also: printed as Me-Tyr-Aib-Glu-Gly-Thr-αMePhe-Thr-Ser-Asp-Lys(-Gly-Gly-Gly-Gly-Oda)-Aib-Ile-Aib-Leu-Asp-Lys-Gln-Arg-Gln-Iva-Glu-Phe-Val-Arg-His-Leu-Leu-Asn-Lys-Aib-Thr-Arg-Gln-Arg-Tyr-NH2) | 250 pM | 2 nM | 1400 pM
